These results are taken from article PMC2566858 (Nucleic Acids Research, 2008).

Changes are numbered by the printed parent chain. Read-outs that look alike come from different tables or passages of the source.

What all share (assay): fluorescence anisotropy
(Polarisation of emitted light reports the rotation of a fluorescent probe.)

Series [1] concerns the target T1, rGyr_hel K106Q (Thermotoga maritima, UniProt O51934 59-541, K106Q).
T1 sequence: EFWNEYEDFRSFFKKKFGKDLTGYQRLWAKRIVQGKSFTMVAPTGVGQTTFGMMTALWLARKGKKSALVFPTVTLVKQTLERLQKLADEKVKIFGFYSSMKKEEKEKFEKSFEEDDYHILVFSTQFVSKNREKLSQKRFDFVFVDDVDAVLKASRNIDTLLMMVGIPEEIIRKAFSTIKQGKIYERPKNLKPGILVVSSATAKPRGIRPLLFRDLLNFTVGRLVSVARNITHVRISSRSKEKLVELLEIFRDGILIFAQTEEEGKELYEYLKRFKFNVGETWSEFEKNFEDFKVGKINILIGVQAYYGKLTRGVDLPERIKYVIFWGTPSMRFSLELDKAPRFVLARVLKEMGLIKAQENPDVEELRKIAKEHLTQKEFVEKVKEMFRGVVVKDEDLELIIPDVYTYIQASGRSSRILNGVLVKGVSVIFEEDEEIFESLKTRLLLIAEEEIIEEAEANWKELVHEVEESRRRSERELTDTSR

Series [2] addresses T2, rGyr_hel (reverse gyrase helicase-like domain) (Thermotoga maritima, UniProt O51934 59-541).
T2 sequence: T1 sequence with Q48K

For series [3], the target named is T2, rGyr_hel (reverse gyrase helicase-like …). This is another data set of the same source.
The target in series [4] is T3, rGyr_fl Y851F (full-length reverse gyrase) (Thermotoga maritima, UniProt O51934 1-1104, Y851F).
T3 sequence: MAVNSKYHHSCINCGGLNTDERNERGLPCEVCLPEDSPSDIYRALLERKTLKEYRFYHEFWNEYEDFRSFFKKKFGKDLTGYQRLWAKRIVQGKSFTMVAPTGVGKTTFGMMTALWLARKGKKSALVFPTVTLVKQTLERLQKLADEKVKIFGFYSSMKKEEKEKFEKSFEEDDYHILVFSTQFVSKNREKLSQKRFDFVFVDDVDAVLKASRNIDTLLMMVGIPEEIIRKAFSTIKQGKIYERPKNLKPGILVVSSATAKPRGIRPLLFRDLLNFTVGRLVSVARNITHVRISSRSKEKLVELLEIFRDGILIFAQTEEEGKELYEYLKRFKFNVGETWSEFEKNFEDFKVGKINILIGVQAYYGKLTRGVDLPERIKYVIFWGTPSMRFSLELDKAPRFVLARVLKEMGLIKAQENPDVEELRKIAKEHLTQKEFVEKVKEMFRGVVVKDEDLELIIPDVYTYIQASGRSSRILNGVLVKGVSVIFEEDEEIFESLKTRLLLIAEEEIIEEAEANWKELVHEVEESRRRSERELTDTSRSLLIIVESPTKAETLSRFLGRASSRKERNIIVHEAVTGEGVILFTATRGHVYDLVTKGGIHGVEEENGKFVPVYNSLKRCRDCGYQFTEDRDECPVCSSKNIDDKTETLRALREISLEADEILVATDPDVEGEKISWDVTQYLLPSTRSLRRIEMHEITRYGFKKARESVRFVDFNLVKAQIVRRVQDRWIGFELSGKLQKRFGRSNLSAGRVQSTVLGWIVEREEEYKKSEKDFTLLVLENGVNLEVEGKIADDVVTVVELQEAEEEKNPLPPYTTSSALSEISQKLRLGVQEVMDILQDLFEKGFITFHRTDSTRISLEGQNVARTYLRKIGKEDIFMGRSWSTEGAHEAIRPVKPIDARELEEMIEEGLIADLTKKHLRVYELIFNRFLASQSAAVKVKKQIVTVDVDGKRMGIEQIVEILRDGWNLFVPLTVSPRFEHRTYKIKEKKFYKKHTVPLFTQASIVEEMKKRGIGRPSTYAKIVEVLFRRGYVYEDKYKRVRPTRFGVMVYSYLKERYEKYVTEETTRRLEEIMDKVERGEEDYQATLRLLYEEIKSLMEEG

Series [5] has as its target T3, rGyr_fl Y851F (full-length reverse …). The source holds these as a separate data set.
Series [6] shares this target. This is another data set of the same source.

B1: 60-base ssDNA (ssDNA)
DNA: AAGCCAAGCTTCTAGAGTCAGCCCGTGATATTCATTACTTCTTATCCTAGGATCCCCGTT
The Kd is the equilibrium constant for the complex coming apart. Low values mean tighter binding, high ones weaker binding. With B1, the Kd in series [1] stood at 200 ± 20 nM; in series [2] it was 380 ± 50 nM; in series [3], 920 ± 210 nM; in series [4], 41 ± 1 nM; in series [5], 46 ± 8 nM; in series [6], 330 ± 20 nM.
